Measurements from patent US20170291948A1 (published 2017).
Numbering of substitutions follows the chain as printed. Blank lines part the entries; values can stand above or below the binder they belong to.

Target: human NRP1 protein (human, UniProt O14786 22-644)
Experiment: ELISA

Sequence of human NRP1 protein (O14786 other isoform, or with tags, fused parts or gaps): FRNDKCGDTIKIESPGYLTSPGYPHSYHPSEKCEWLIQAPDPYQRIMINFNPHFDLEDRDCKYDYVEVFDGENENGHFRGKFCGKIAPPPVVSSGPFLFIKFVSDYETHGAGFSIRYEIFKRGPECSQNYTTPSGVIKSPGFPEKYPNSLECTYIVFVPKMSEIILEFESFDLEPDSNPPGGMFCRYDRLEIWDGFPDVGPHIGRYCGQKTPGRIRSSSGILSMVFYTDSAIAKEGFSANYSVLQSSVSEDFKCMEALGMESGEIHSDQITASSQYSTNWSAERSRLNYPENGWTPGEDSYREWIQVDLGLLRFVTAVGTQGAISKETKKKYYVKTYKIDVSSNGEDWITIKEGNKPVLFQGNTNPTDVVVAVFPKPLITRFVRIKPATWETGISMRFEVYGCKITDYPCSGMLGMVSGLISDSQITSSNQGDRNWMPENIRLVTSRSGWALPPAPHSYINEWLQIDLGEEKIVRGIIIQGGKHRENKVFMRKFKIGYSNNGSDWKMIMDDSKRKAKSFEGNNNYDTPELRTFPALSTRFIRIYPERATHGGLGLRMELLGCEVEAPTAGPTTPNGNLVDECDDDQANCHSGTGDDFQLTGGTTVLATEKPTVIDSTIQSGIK

Kd: 1110 nM
B1: 1A03 anti-NRP1 IgG (antibody, V domains shown)
VH: EVQLLESGGGLVQPGGSLRLSCAASGFTFSSYYMSWVRQAPGKGLEWVSAISPGSSNKYYADSVQGRFTISRDNSKNTLYLQMNSLRAEDTAVYYCARRKKSFDYWGQGTLVTVSS
VL: QSVLTQPPSASGTPGQRVTISCSGPSSNIGNNDVSWYQQLPGTAPKLLIYSDNNRPSGVPDRFSGSKSGTSASLAISGLRSEDEADYYCGAWVASLSAYVFGGGTKLTVL

Kd: 426 nM
B2: IRCR-101 (3H10) anti-NRP1 IgG (antibody, V domains shown)
VH: B1 VH with Q65K, K101Y, S102M
VL: B1 VL with S23T, P25S, S35Y, N53S, G90A, A91S, V93D, A94S, A98G
